Where “and” joins values, the source holds several entries; their conditions need not be identical. Equal entries are not always repeated. Where two headings read alike, the source gives them in different places.
Tests used:
[1] = target: T1, SARS-CoV-2 spike protein receptor binding domain (RBD2) (SARS-CoV-2, UniProt P0DTC2 319-537); assay: flow cytometry, yeast-displayed scFv, titration of biotinylated antigen
[2] = target: T1, SARS-CoV-2 spike protein receptor …; assay: flow cytometry, yeast-displayed scFv
[3] = target: T1, SARS-CoV-2 spike protein receptor …; assay: flow cytometry, yeast-expressed scFv
[4] = target: T1, SARS-CoV-2 spike protein receptor …
[5] = target: T2, SARS-CoV spike protein receptor binding domain (RBD1) (SARS-CoV, UniProt P59594 306-527); assay: plate immunoassay on immobilized antigen, PE-labelled anti-rabbit/anti-human
[6] = target: T1, SARS-CoV-2 spike protein receptor …; remark: listed apart in the source
[7] = target: T2, SARS-CoV spike protein receptor binding …; assay: ELISA, crude rabbit minibody
[8] = target: T1, SARS-CoV-2 spike protein receptor …; remark: listed apart in the source

B1: E01 scFv (scFv)
scFv: SYELTQPPSVSVAPGETARITCGGDNIGRRHVHWYQQKPGQAPVLVIYDDSDRPSGIPDRFSGSNSGNTATLTIGRVEAGDEADYYCQVWGSSNDPHVFGTGTKLTVLSGGSTITSNNVYYTKLSSSGTQVQLQQWGAGLLKPSETLSLKCAVYGGSFSGYYWGWIRQSTGKGLEWIGEINRSGSTNYNPSLKSRVTISVDTSKNQFSLKLSSVTAADTAVYYCARGGARYYYGSGSYRSTPRPYYFDYWGQGTLVTVSS
notes: also called E1
Kd [1]: 13.9 nM
Kd [2]: 13.9 nM
Kd [3]: 16.1 nM
Kd [4]: 13.9 nM

B2: E01 rabbit minibody (scFv-rabbit Fc) (Fc fusion)
scFv-Fc: SYELTQPPSVSVAPGETARITCGGDNIGRRHVHWYQQKPGQAPVLVIYDDSDRPSGIPDRFSGSNSGNTATLTIGRVEAGDEADYYCQVWGSSNDPHVFGTGTKLTVLSGGSTITSNNVYYTKLSSSGTQVQLQQWGAGLLKPSETLSLKCAVYGGSFSGYYWGWIRQSTGKGLEWIGEINRSGSTNYNPSLKSRVTISVDTSKNQFSLKLSSVTAADTAVYYCARGGARYYYGSGSYRSTPRPYYFDYWGQGTLVTVSS
binding result [5]: no binding

B3: B04 scFv (scFv)
scFv: SYVLTQPPSVSVAPGKTARITCGGNNIGIRSVHWYQQKPGQAPVLVIYYDSDRPSGIPERFSGSKSGNTATLTISRVEAGDEADYYCQVWDSSSDHPVFGGGTKLTVLSGGSTITSYNVYYTKLSSSGTQVQLVESGAEVKKPGASVKVSCKASGYTFTRYYMHWVRQAPGQGLEWMGIINPSGGTTSYAQKFQGRVTMTRDTSTSTVYMELSSLRSEDTAVYYCARSFGELTSFDYWGQGTLVTVSS
Kd [1]: 13.9 nM
Kd [6]: 13.9 nM
Kd [2]: 13.9 nM

B4: S01 rabbit minibody (scFv-rabbit Fc) (Fc fusion)
chain: EIVMTQSPSSLSASVGDSVTITCQASQDISNYLNWYQQKPGKAPKLLIYDASNLETGVPSRFSGGGSGTDFTLTITSLQPEDIATYYCQQYDNFPPTFGPGTKVDIKSGGSTITSYNVYYTKLSSSDTQVQLVESGGGLVKPGGSLRLSCAASGFTVGSNYMSWVRQAPGKGLEWVSVIYSGGSTYYADSVKGRFTISRDNSKNTLYLQMNSLRAEDTAVYYCARGSSGAWYFDLWGRGTLVTVSS
binding result [5]: no binding

B5: S01 human minibody (scFv-human Fc) (Fc fusion)
chain: EIVMTQSPSSLSASVGDSVTITCQASQDISNYLNWYQQKPGKAPKLLIYDASNLETGVPSRFSGGGSGTDFTLTITSLQPEDIATYYCQQYDNFPPTFGPGTKVDIKSGGSTITSYNVYYTKLSSSDTQVQLVESGGGLVKPGGSLRLSCAASGFTVGSNYMSWVRQAPGKGLEWVSVIYSGGSTYYADSVKGRFTISRDNSKNTLYLQMNSLRAEDTAVYYCARGSSGAWYFDLWGRGTLVTVSS
binding result [5]: no binding

B6: R09 scFv (scFv)
scFv: QPGLTQPPSVSVSPGQTASITCSGDKLGYKYVSWYQQKPGQSPVLVIYEDTKRPSGIPKRFSGSNSGNTATLTICGTQAVDEADYYCQAWDSSVVFGGGTKLTVLSGGSTITSYNVYDTKLSSSGTQVQLVQSGAEVKKPGASVKVSCKASGYTFTSYGISWVRQAPGQGLEWMGWISAYNGNTNYAQKFQGRVTMTTDTSTSTAYMELRSLRSDDTAVYYCARDMELRPPFDYWGQGTLVTVSS
Kd [3]: 4820 nM

B7: R26 rabbit minibody (scFv-rabbit Fc) (Fc fusion)
scFv-Fc: SYELTQPPSVSVAPGQTATITCGGKNIESKSVHWYQQKPGQAPVLVVSDDTDRASGIPERFSGSNSGGAATLTISRVEAGDEADYYCQVWDSPSDHYVFGPGTKLTVLSGGSTITSYNVYYTKLSSSGTQVQLVESGGGVVQPGRSLRLSCAASGFTFSSYAMHWVRQAPGKGLEWVAVISYDGSNKYYADSVKGRFTISRDKAKNTLYLQMNSLRGEDTAVYYCARELSYYDSSGYLRGDWYFDLWGRGTLVTVSS
binding result [7]: no binding

B8: D04 scFv (scFv)
scFv: SYVLTQPPSVSVAPGKTARITCGGNNIGWKSVHWYQQKPGQAPVLVVYNDNDRPSGVPERFSGSNSGNTATLTISRVVAGDEADYYCQVWDSSSDHVLFGGGTKLTVLSGGSTITSYNVYYTKLSSSGTQVQLVQSGAEVKKPGSSVKVSCKASGGTFSSYAISWVRQAPGQGLEWMGGIIPIFGTANYAQKFQGRVTITADESTSTAYMELSSLRSEDTAVYYCARASGRWLQFWHYYGMDVWGQGTTVTVS
Kd [1]: 33 nM
Kd [6]: 33 nM

B9: D07 scFv (scFv)
scFv: SYELTQPPSVSVAPGETARMTCGGNNIGTKGVHWYQQKPGQAPVLVVYDDSDRPSGIPERFSGSNAGNTATLTISRVEAGDEADYYCQVWDSRSDQYVFGTRTKLTVLSGGSTITSYNVYYTKLSSSGAQVTLKESGPVLVKPTETLTLTCTVSGFSLSNARMGVSWIRQPPGKALEWLAHIFSNGEKSYSTSLKSRLTISKDTSKSQVVLTMTNMDPVDTATYYCARTLDYYDSSGYLVGGAFDIWGQGTMVTVSS
Kd [1]: 113 nM
Kd [6]: 113 nM and 138 nM
Kd [3]: 268 nM

B10: H01 scFv (scFv)
scFv: QPGLTQPPSVSLAPGQTARITCGGNNIGSKSVHWYQQKPGQAPVLVVYDDSDRPSGIPERFSGSNAGNTATLTISRVEAGDEADYYCQVWDSRSDQYVFGTRTKLTVLSGGSTITSYNVYYTKLSSSGAQVTLKESGPVLVKPTETLTLTCTVSGFSLSNARMGVSWIRQPPGKALEWLAHIFSNGEKSYSTSLKSRLTISKDTSKSQVVLTMTNMDPVDTATYYCARTLDYYDSSGYLVGGAFDIWGQGTMVTVSS
notes: also called H1
Kd [1]: 66.4 nM
Kd [2]: 66.4 nM
Kd [8]: 66.4 nM

B11: F07 scFv (scFv)
scFv: SYVLTQPPSVSVAPGQTARITCGGNNIGSKSVHWYQQKPGQAPVLVVYDDSDRPSGIPERFSGSNSGNTATLIISRVEAGDEADYYCQVWDSSSVHYVFGTGTKLTVLSGGSTITSYNVYYTKLSSSGTQVQLVQSGAEVKKPGSSVRVSCKVSGYTFTGYYMHWVRQAPGQGLEWMGIINPSGGSTSYAQKFQGRVTMTRDTSTSTVYMELSSLRSEDTAVYYCARVRVGASDAFDIWGQGTMVTVSS
Kd [1]: 67.5 nM
Kd [2]: 67.5 nM
Kd [3]: 280 nM
Kd [4]: 67.5 nM

B12: E07 scFv (scFv)
scFv: SYVLTQPPSVSVAPGQTARITCGGNNIGSKSVHWYQQKPGQAPVLVVYDDSDRPSGIPERFSGSNSGNTATLIISRVEAGDEADYYCQVWDSSSVHYVFGTGTKLTVLSGGSTITSYNVYYTKLSSSGTQVQLVQSGAEVKKPGSSVRVSCKVSGYTFTGYYMHWVRQAPGQGLEWMGIINPSGGSTSYAQKFQGRVTMTRDTSTSTVYMELSSLRSEDTAVYYCARVRVGASDAFDIWGQGTMVTVSS
Kd [3]: 436 nM

B13: F07 human minibody (scFv-human Fc) (Fc fusion)
chain: SYVLTQPPSVSVAPGQTARITCGGNNIGSKSVHWYQQKPGQAPVLVVYDDSDRPSGIPERFSGSNSGNTATLIISRVEAGDEADYYCQVWDSSSVHYVFGTGTKLTVLSGGSTITSYNVYYTKLSSSGTQVQLVQSGAEVKKPGSSVRVSCKVSGYTFTGYYMHWVRQAPGQGLEWMGIINPSGGSTSYAQKFQGRVTMTRDTSTSTVYMELSSLRSEDTAVYYCARVRVGASDAFDIWGQGTMVTVSS
binding result [5]: no binding

B14: F07 rabbit minibody (scFv-rabbit Fc) (Fc fusion)
chain: SYVLTQPPSVSVAPGQTARITCGGNNIGSKSVHWYQQKPGQAPVLVVYDDSDRPSGIPERFSGSNSGNTATLIISRVEAGDEADYYCQVWDSSSVHYVFGTGTKLTVLSGGSTITSYNVYYTKLSSSGTQVQLVQSGAEVKKPGSSVRVSCKVSGYTFTGYYMHWVRQAPGQGLEWMGIINPSGGSTSYAQKFQGRVTMTRDTSTSTVYMELSSLRSEDTAVYYCARVRVGASDAFDIWGQGTMVTVSS
binding result [5]: no binding

B15: H05 rabbit minibody (scFv-rabbit Fc) (Fc fusion)
scFv-Fc: SYVLTQPPSVSVAPGQTARITCGANNIGRISVHWYQQKPGQAPVLVVYDDSDRPSGIPERFSGSNFGNTATLTISRVEAGDEADYYCQVWDSYSDHVIFGGGTKLTVLSGGSTITSYNVYYTKLSSSGTQVQLVQSGAEVKKPGSSVKVSCKASGGTFSSYAISWVRQAPGQGLEWMGGIIPIFGTANYAQKFQGRVTITADESTSTAYMELSSLRSEDTAVYYCARSIFGVVIISHADGYYYGMDVWGQGTTVTVSS
binding result [7]: no binding

B16: H02 rabbit minibody (scFv-rabbit Fc) (Fc fusion)
scFv-Fc: QSVVTQPPSVSAAPGQKVTISCSGSSSNIGNNYVSWYQQLPGTAPKLLIYRDTQRPSGVPDRFSGSKSGTSASLAISGLRSEDEADYYCATWDKSLSGPVFGGGTKVTVLSGGSTITSYNVYYTKLSSSGTQVQLQQSGPGLVKPSQTLSLTCAISGDSVSSNSAAWNWIRQSPSRGLEWLGRTYYRSKWYNDYAVSVKSRIIINPDTSKNQFSLQLNSVTPEDTAVYYCARQDNNPYYGLDVWGQGTTVTVSS
binding result [7]: no binding

B17: H03 rabbit minibody (scFv-rabbit Fc) (Fc fusion)
scFv-Fc: SYELTQPPSVSVAPGQTARITCGGNNIGSKSVHWYQQKPGQAPVLVIYYDSDRPSGIPERFSGSNSGNTATLTISRVEAGDEADYYCQVWDSSSALYVFGTRTKVTVLSGGSTITSYNVYYTKLSSSGTQVQLVESGGGLVQPGRSLRLSCAASGFTFDDYAMHWVRQAPGKGLEWVSGISWNSGSIGYADSVKGRFTISRDNAKNSLYLQVNSLRAEDTAVYYCARELIVGTTSPQTDAFDIWGQGTMVTVSS
binding result [7]: no binding

From patent US12018066 (TRIAD NATIONAL SECURITY, dated 2024)
